Source: patent publication US20160257751A1 (SORRENTO THERAPEUTICS, published 2016)
Changes are numbered by the printed parent chain. Values belong to the binder of their own block, whether it stands above or below them.

Target: T1, human CD47 (human, UniProt Q08722 19-139, limits assumed, biotinylated in the ELISAs (site not stated))
T1 construct: also called biotinylated CD47; CD47 receptor
Experiment: SPR (BIACORE)

T1 sequence (Q08722 19-139 limits assumed): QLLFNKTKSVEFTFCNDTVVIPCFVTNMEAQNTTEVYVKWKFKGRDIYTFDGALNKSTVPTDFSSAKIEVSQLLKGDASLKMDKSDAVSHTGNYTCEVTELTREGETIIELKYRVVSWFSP

Kd: 82.3 nM | koff: 0.047 s⁻¹ | kon: 576000 M⁻¹ s⁻¹
B1: C47A8 (antibody, V domains shown)
VH: QVQLVQSGAEVKKPGASVKVSCKASGYTFTSYYMHWVRQAPGQGLEWMGIINPSGGSTSYAQKFQGRVTMTRDTSTSTVYMELSSLRSEDTAVYYCARSTLWFSEFDYWGQGTLVTVSS
VL: QSVLTQPSSVSASPGQSITISCSGTSSDVGGHNYVSWYQQHPGKAPKLMIYDVTKRPSGVPDRFSGSKSGNTASLTVSGLQAEDEADYYCCSYAGSRVYVFGTGTKLTVL
notes: also called CD47A8

Kd: 12.1 nM | koff: 0.00129 s⁻¹ | kon: 106000 M⁻¹ s⁻¹
B2: C47B10 (antibody, V domains shown)
VH: B1 VH
VL: QSVLTQPASVSGSPGQSISISCTGTSSDVGGHNYVSWYQQHPGKAPKLMIYDVRNRPSGVSNRFSGSKSGSTASLTISGLQTEDEADYYCNSYTGSRTYVFGSGTKLTVL
notes: lambda light chain (captured with anti-human lambda); also called CD47B10

Kd: 156 nM | koff: 0.034 s⁻¹ | kon: 215000 M⁻¹ s⁻¹
B3: C47A8-CS (antibody, V domains shown)
VH: B1 VH
VL: B1 VL with C91S

Kd: 156 nM | koff: 0.02 s⁻¹ | kon: 129000 M⁻¹ s⁻¹
B4: C47A8-CQ (antibody, V domains shown)
VH: B1 VH
VL: B1 VL with C91Q
